Test results: the DeepSol protein solubility set

Experiment: soluble on expression in E. coli; label from the status in PepcDB or PDB records

| Sequence | soluble on expression in E. coli |
| --- | --- |
| MLSIISKYLLIASYICSYLEPRYDASIFSRKTRIIQGRAAYGRRKKKEVNPRYLQPSLFAIERLLAIFQAIFPIQGKAESGSLSALREESLMKANIEVFQNLSELHTLKLIATTMNKNIDYLSPKVRWKVNVPWEIIKEISESVHFNISDYFSD | not soluble |
| GPGSMERTPTARIRDVIDSQLALRSSGFLPGNSTPDQLLHLRAAVHRNAPQHRTAAYFVDHANAFGTVGPDAVILEMRRLSIPNRIARWSAACLNSTSAVVCIDKLTPSSRTLTRGAPQGTVLAPIMFVVVMQSRCSCPSNVPYFAEGSSLMTALSPHSRATGMRSTRPQKKA | not soluble |
| MILETISKQLQEQQESLNKDYRKKLESIKERSDRLESDLKTQFDAQLEKWEQNFKGYEQQLTDILNEREQLDLDQQRLNAQKQALENHMKQREE | not soluble |
| MLLPRCCWGRWLMGRRPRCSCQAPAGFDGKDGRGSRVREMPPWRVLFLGTDHFARETLRALHAARDGKEEKLIEKLEVVTVPSLSPKGLPVKQYAIQSQLPVYEWPDVGSGEYDVGVVASFGRLLSEALILKFPYGILNVHPSCLPRWRGPAPIIHTVLHGDTVTGVTIMQIRPKRFDIGPILQQETIPVPPKSTSKELEAVLSKLGANMLISVLKNLPESLNNGRPQPAEGVTYAPKVSAGTSCVKWEEQTSEQVLRLHLAIGDIVPLQTLWMENTVKLLDLVEVNNSILADPKLTGQTVTPGFVVYHRPSQMLLVRCKDGWIGVRSVMLKKTLTATDFYNGYLHAWYQKNSHAHPSQCRFQTLRLPTKMQQKTKLLLCNSALSS | soluble |
| MSSLCLQRLQEERKKWRKDHPFGFYAKPVKKADGSMDLQKWEAGIPGKEGTNWAGGVYPITVEYPNEYPSKPPKVKFPAGFYHPNVYPSGTICLSILNEDQDWRPAITLKQIVLGVQDLLDSPNPNSPAQEPAWRSFSRNKAEYDKKVLLQAKQYSK | soluble |
| GMEKLNFGIPEWAFEFHGHKCPYMPMGYRAGSYALKIAGLEKEKDHRTYLLSEMSPEDMNGCFNDGAQAATGCTYGKGLFSLLGYGKLALILYRPGRKAIRVHVRNSFMDELSTRASDFFRYRKQGYEPSEIPAGAIDPVLEWISSLEDEEIFEYREIDGFTFEPVKKNGAKVRCDVCGEYTYEADAKLLNGKPVCKPDYYGKK | soluble |
| QLQEKLYVPVKEYPDFNFVGRILGPRGLTAKQLEAETGCKIMVRGKGSMRDKKKEEQNRGKPNWEHLNEDLHVLITVEDAQNRAELKLKRAVEEVKKLLVPAAEGEDSLKKMKLMELAILNGTYRDANLKSPALHHHHHH | soluble |
| NKDWNVYASANFNYNRQEITKLFFGLNKYMLPNTGTIWEIGYPNSFYMAEYAGIDKKTGKQLWYVPGQVDADGNKVTTSQYSADLETRIDKSVTPPITGGFSLGASWKGLSLDADFAYIVGKWMINNDRYFTENGGGLMQLNKDKMLLNAWTEDNKETDVPKLGQSPQFDTHLLENASFLRLKNLKLTYVLPNSLFAGQNVIGGARVYLMARNLLTVTKYKGFDPEAGGNVGKNQYPNSKQYVAGIQLSF | not soluble |
| MGSDKIHHHHHHMKYTIEEIRQMQEGQTFDCKSILIEPKHLATIIVAMANADGGMIAVGISDKTRRIEGVNQDKEHLNDILRTPLDFCVPSVSVTTDYVPCTDAEGRDNRVLLMHIPASPRLHANQADEVFWRVGDKSRKLTFDERLQLMYDKGERYYEDSTAYDATLDDIDMDAVKAYMKRIGYGKSAMEYLQENKGFVTYKGDVPQVSAACILLFGKHPQTFFPRARVRFIKYFGTEEKVGREMNVIKDVTFDGRILEQIQKTVEYLETQVKEHSYLGEDGIFKTDREYPKFVIQEMVVNSVCHRDYSIKGTEIQIKMFDDRLVFETPGKLPGIVRTDNIRHTHFSRNPKIAEFLKAYDYVKEFGEGVDRMCRELSALGVKEPQYNLVAFIMKATVCAKVLEERQGTNHFDQKRPESDQKSDQMRIILELIKSNPNISRTELSEKTGLHDSSVKRRLKTLVDEGLIQRVGPDKGGQWKVIGSL | not soluble |
